Patent publication US20260109763A1 (DENALI THERAPEUTICS, published 2026)
Substitutions are numbered along the chain they refer to.

T1: hNPDC1(35-181) (human, UniProt Q9NQX5 35-181)
T1 construct: range 35-181; also called neural proliferation differentiation and control protein 1
T1 sequence (looked up): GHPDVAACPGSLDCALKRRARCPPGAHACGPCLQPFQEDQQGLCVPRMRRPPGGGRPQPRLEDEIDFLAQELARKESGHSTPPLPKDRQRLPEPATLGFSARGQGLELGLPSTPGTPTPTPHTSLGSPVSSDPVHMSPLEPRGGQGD

T2: hPANP(76-178) (human, UniProt Q8IYJ0 76-178)
T2 construct: range 76-178; also called PIANP; PILRA-associated neural protein
T2 sequence (looked up): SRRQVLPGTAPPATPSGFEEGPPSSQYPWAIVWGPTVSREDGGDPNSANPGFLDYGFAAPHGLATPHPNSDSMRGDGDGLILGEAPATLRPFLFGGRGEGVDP

B1: Anti-PILRA antibody clone 12 (antibody, V domains shown)
VH: EVQLVQSGAEVKKPGASVKVSCKASGYTFTEYYMYWVRQAPGQGLELIGRIDPEDGGTDYIEKFKNRVTITADTSTSTAYLELSSLRSEDTAVYYCATTIRGTVFAFWGQGTLVTVSS
VL: DIQMTQSPSSLSASVGDRVTITCRASEDIFNGLAWYQQKPGKSPKLLIYNAKTLHTGVPSRFSGSGSGSDYTLTISSLQPEDFATYFCQQYYDYPLTFGQGTKVEIK
notes: Humanized; also called Ab.12
B2: Anti-PILRA antibody clone 39 (antibody, V domains shown)
VH: B1 VH with I70L
VL: B1 VL
notes: Humanized
B3: Anti-PILRA antibody clone 38 (antibody, V domains shown)
VH: B1 VH with I61V, I70A, T98S, A106V, F107Y
VL: B1 VL with A25P, F30Y, S43A, K52N, T53S, S69T
notes: Humanized
B4: Reference Antibody #1 (antibody, human IgG1, kappa, L234A L235A, V domains shown)
VH: QVTLQESGPGILQPSQTLSLTCSFSGFSLSTFGMGVGWIRQPSGKGLEWLAHIWWDDDKYYNPALKSRLTISKDTSKNQVFLKIASVDTADIATYYCARVEDYGNPFDYWGQGTTLTVSS
VL: DIQMNQSPSSLSASLGDTITITCHASQNIHVWLNWYQQKPGNIPKLLIYKASNLHTGVPSRFSGSGSGTGFTVTISSLQPEDIATYYCQQGQSYPLTFGAGTKLELKR
B5: Reference Antibody #2 (antibody, human IgG1, kappa, L234A L235A, V domains shown)
VH: QVILKESGPGILQSSQTLSLTCSFSGFSLSTFGMGVGWIRQPSGKGLESLAHIWWDDDKFYNPALKSRLTISKDTSKSQVFLKIANVDTADIATYYCTRIEDYGSYFAYWGQGTTLTVSS
VL: B4 VL with I2V, T18P, K39R, K45R, V73L, L96Y, A100G, L106I
B6: Reference Antibody #4 (antibody, human IgG1, kappa, L234A L235A, V domains shown)
VH: B4 VH with Q5K, S30T, T75I, S86N, I92T, V100I
VL: B4 VL with N34S, V73L
B7: Anti-PILRA antibody clone 6 (antibody, V domains shown)
VH: EVQLQQSGPELQRPGASVKLSCKASGYTFTEYYMYWVKQRPKQGLELIGRIDPEDGGTDYIEKFKNKATLTADTSSNTAYMQLSSLTSEDTATYFCATTIRGTVFAFWGQGTLVTVSS
VL: DIQMTQSPASLSASLGETVTIECRASEDIFNGLAWYQQKPGKSPHLLIYNAKTLHTGVPSRFSGSGSGSQYSLKINSLQSEDVASYFCQQYYDYPLTFGSGTKLEIK
notes: the printed lines of the VL are out of order there
B8: Anti-PILRA antibody clone 7 (antibody, V domains shown)
VH: B7 VH with I48M, I61V, T98S, A106V, F107Y
VL: B7 VL with A25P, F30Y, K42E, H45Q, K52N, T53S, S69T
B9: human PILRA G78 extracellular domain (recombinant hPILRA ECD) (receptor)
chain: QPSGSTGSGPSYLYGVTQPKHLSASMGGSVEIPFSFYYPWELATAPDVRISWRRGHFHGQSFYSTRPPSIHKDYVNRLFLNWTEGQKSGFLRISNLQKQDQSVYFCRVELDTRSSGRQQWQSIEGTKLSITQAVTTTTQRPSSMTTTWRLSSTTTTTGLRVTQGKRRSDSWHISLETA
notes: also called hPILRA G78

Assays:
[1] = biological target: B9; experiment: SPR
[2] = biological target: T3, human PILRA R78 extracellular domain (recombinant) (human, UniProt Q9UKJ1 20-197); experiment: SPR
T3 construct: also called hPILRA R78
Target sequence in this assay (Q9UKJ1 20-197 limits assumed): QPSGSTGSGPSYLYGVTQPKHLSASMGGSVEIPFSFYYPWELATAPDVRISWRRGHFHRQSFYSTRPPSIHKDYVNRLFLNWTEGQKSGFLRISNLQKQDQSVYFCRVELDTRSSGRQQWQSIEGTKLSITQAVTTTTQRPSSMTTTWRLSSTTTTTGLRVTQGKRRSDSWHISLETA

[3] = biological target: T4, human PILRB extracellular domain (recombinant) (human, UniProt Q9UKJ0 20-191); experiment: SPR
T4 construct: also called hPILRB

[4] = biological target: T5, cynomolgus monkey PILRA extracellular domain (recombinant) (cynomolgus monkey); experiment: SPR
T5 construct: also called cynoPILRA; Cyno PILRA

human PILRA G78 on cells [5] = biological target: T6, human PILRA G78 on cells (human, UniProt Q9UKJ1 20-303); experiment: cell-based or functional assay
Target sequence in this assay (Q9UKJ1 20-303 R78G limits assumed): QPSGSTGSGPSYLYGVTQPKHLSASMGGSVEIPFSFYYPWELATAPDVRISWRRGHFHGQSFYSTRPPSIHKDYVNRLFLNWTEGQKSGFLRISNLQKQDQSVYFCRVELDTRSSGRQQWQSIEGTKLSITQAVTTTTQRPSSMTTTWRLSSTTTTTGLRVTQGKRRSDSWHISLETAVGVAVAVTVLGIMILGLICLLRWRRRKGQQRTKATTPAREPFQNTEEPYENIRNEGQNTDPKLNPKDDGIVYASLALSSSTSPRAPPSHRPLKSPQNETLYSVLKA

human PILRA R78 on cells [6] = biological target: T7, human PILRA R78 on cells (human, UniProt Q9UKJ1 20-303); experiment: cell-based or functional assay
human PILRA G78 on cells [7] = biological target: T6, human PILRA G78 on cells; experiment: flow cytometry on HEK293 cells expressing hPILRA G78
Target sequence in this assay (Q9UKJ1 20-303 R78G limits assumed): as above

[8] = biological target: B9; experiment: SPR, Biacore 8K; hPILRA ECD; antibody with wild-type Fc
Method: (§1) Antibodies were captured on Biacore™ Series S CM5 sensor chips immobilized with mouse anti-human Fab (human Fab capture kit from GE Healthcare) followed by injections of serial 3-fold dilutions of recombinant ECD reagents at a flow rate of 30 μL/min. Each sample was analyzed using a 3-minute association followed by a 10-minute dissociation. After each injection, the sensor chip was regenerated using a 5 0 mM glycine pH2.0 regeneration buffer. A 1:1 Languir model of simultaneous fitting of kₒₙ and koff was used for kinetics analysis.
Characterization for binding affinities of the humanized antibodies to hPILRA ECD were measured by SPR using a Biacore 8K instrument (Table 7).

human PILRA G78 on cells [9] = biological target: T6, human PILRA G78 on cells; experiment: flow cytometry on PILRA G78 expressing CHO-K1 cells (FIG. 1H)
Target sequence in this assay (Q9UKJ1 20-303 R78G limits assumed): as above
Method: (§2) PILRA G78 or R78 overexpressing HEK293 cells were stained with NucBlue Live cell stain for 30 mins at RT. […] Cell lines were run in duplicate to account for intra-variability, for a total of N=3. The same protocol was used for CHO-K1 cells expressing hPILRA G78.

human PILRA G78 on cells [10] = biological target: T6, human PILRA G78 on cells; experiment: flow cytometry on PILRA G78 expressing HEK293 cells (FIG. 1D); HEK293 cells expressing PILRA G78
Method: as §2

human PILRA R78 on cells [11] = biological target: T7, human PILRA R78 on cells; experiment: flow cytometry on PILRA R78 expressing HEK293 cells (FIG. 1F); HEK293 cells expressing PILRA R78
Method: as §2

[12] = biological target: B9; experiment: SPR; remark: listed apart in the source
[13] = biological target: T3, human PILRA R78 extracellular domain …; experiment: SPR; remark: listed apart in the source
Target sequence in this assay (Q9UKJ1 20-197 limits assumed): as the sequence (Q9UKJ1 20-197 limits assumed) above

[14] = biological target: T4, human PILRB extracellular domain …; experiment: SPR; remark: listed apart in the source
[15] = biological target: T5, cynomolgus monkey PILRA extracellular …; experiment: SPR; remark: listed apart in the source
human PILRA G78 on cells [16] = biological target: T6, human PILRA G78 on cells; experiment: cell binding, HEK293 cells expressing hPILRA G78; antibody with modified Fc
Target sequence in this assay (Q9UKJ1 20-303 R78G limits assumed): as the sequence (Q9UKJ1 20-303 R78G limits assumed) above

human PILRA R78 on cells [17] = biological target: T7, human PILRA R78 on cells; experiment: cell binding, HEK293 cells expressing hPILRA R78; antibody with modified Fc
[18] = biological target: T4, human PILRB extracellular domain …; experiment: SPR, Biacore 8K, recombinant ECD
Method: as §1

[19] = biological target: T5, cynomolgus monkey PILRA extracellular …; experiment: SPR, Biacore 8K, recombinant ECD
Method: as §1

human PILRB on cells = biological target: T8, human PILRB on cells (human, UniProt Q9UKJ0 20-227); experiment: flow cytometry, CHO cells expressing hPILRB, MFI as fold over isotype control
T8 construct: Expressed on CHO-K1 cells, or together with DAP12 on HEK293 cells (hPILRB-DAP12 OE HEK293); also called hPILRB; hPILRB-DAP12

[20] = biological target: T9, cynomolgus monkey PILRA on cells (cynomolgus monkey); experiment: flow cytometry, CHO cells expressing cynoPILRA, MFI as fold over isotype control
T9 construct: Expressed on CHO-K1 cells; also called cynoPILRA; cyno PILRA

human PILRA G78 on cells [21] = biological target: T6, human PILRA G78 on cells; experiment: flow cytometry on HEK293 cells expressing hPILRA G78; remark: listed apart in the source
Target sequence in this assay (Q9UKJ1 20-303 R78G limits assumed): as above
Method: Parental HEK293 cells were labeled with NucBlue Live ReadyProbes Reagent for 30 mins. […] Antibody binding to the cells was detected by FACS and median fluorescence intensity (MFI) was derived from data analysis performed with the FLOJO software (FIGS. 1A-1C).

human PILRA G78 on cells [22] = biological target: T6, human PILRA G78 on cells; experiment: flow cytometry on HEK293 PILRA G78 cells with sialidase treatment
Method: (§3) PILRA 78G or PILRA 78R expressing HEK293 cells were treated with SialEXO (Genovis). […] It is a combination of two sialidases acting on α2-3, α2-6 and α2-8 linkages. […] Cells were then washed twice and incubated and stained with NucBlue Live Stain for 30 mins at RT.

human PILRA G78 on cells [23] = biological target: T6, human PILRA G78 on cells; experiment: flow cytometry on HEK293 PILRA G78 cells without sialidase treatment
Method: as §3

human PILRA R78 on cells [24] = biological target: T7, human PILRA R78 on cells; experiment: flow cytometry on HEK293 PILRA R78 cells with sialidase treatment; with sialidase treatment
Method: as §3
(§4) Following the same protocol, sialidase treatment was also performed on HEK cells expressing PILRA R78.

[25] = biological target: B9; experiment: SPR, Biacore 8K; antibody captured via anti-human Fab, recombinant ECD injected; 1:1 fit;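 further: CM5 sensor chip, ECD analyte in threefold dilution series at 30 µL/min, 3 min association and 10 min dissociation, kon and koff fitted simultaneously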
[26] = biological target: T3, human PILRA R78 extracellular domain …; experiment: as above
[27] = biological target: T4, human PILRB extracellular domain …; experiment: as above
human PILRA R78 on cells [28] = biological target: T7, human PILRA R78 on cells; experiment: flow cytometry on HEK293 PILRA R78 cells without sialidase treatment; without sialidase treatment
Method: as §3, §4

[29] = biological target: T5, cynomolgus monkey PILRA extracellular …; experiment: SPR, Biacore 8K; antibody captured via anti-human Fab, recombinant ECD injected; 1:1 fit;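 further: CM5 sensor chip, ECD analyte in threefold dilution series at 30 µL/min, 3 min association and 10 min dissociation, kon and koff fitted simultaneously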
hNPDC1(35-181) = biological target: T1, hNPDC1(35-181); experiment: SPR (Biacore 8K): ligand injected over hPILRA ECD (300 nM) held by an anti-PILRA antibody captured on anti-human Fab; panel Ligand binding permitted, antibody not named
hPANP(76-178) = biological target: T2, hPANP(76-178); experiment: as above

T9 sequence (chain, as listed by the source limits assumed): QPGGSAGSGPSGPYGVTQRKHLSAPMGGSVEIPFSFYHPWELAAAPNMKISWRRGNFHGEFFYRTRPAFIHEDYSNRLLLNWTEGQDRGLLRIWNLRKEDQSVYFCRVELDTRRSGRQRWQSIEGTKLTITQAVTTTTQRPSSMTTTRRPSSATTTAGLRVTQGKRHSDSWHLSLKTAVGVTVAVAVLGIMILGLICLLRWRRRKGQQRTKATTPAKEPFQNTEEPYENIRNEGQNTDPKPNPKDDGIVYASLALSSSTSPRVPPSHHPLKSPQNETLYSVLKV
T8 sequence (Q9UKJ0 20-227 limits assumed): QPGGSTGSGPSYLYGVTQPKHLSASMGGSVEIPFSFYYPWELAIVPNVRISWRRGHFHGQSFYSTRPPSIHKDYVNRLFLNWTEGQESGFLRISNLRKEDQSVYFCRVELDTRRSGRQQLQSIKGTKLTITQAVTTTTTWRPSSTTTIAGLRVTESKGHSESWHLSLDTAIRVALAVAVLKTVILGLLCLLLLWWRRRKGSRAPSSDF
T5 sequence (chain, as listed by the source limits assumed): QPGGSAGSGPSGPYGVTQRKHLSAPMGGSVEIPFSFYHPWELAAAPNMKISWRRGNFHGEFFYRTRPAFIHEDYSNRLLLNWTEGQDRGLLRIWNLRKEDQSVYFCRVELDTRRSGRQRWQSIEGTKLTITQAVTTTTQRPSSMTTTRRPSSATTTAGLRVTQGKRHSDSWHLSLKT
T4 sequence (Q9UKJ0 20-191 limits assumed): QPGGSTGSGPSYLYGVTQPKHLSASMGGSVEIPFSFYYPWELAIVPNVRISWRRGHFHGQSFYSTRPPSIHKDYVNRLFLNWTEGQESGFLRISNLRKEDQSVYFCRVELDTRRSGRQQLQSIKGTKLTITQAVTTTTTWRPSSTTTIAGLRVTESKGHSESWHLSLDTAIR
T7 sequence (Q9UKJ1 20-303 limits assumed): as the sequence (Q9UKJ1 20-303 R78G limits assumed) above, with G59R counted along it

## B1
[1]
  Kd: 1.2 nM
[2]
  Kd: 17 nM
[3]
  Kd: 263 nM
[4]
  Kd: 1.8 nM
Human PILRA G78 on cells [5]
  pSTAT3 S727 induction, EC50 (nM): 16 nM
  pSTAT3 S727 induction, Fold Over Background: 31.6 fold
  pSTAT3 Y705 induction, EC50 (nM): 11.7 nM
  pSTAT3 Y705 induction, Fold Over Background: 31.3 fold
Human PILRA R78 on cells [6]
  pSTAT3 S727 induction, EC50 (nM): 7.41 nM
  pSTAT3 S727 induction, Fold Over Background: 21.4 fold
  pSTAT3 Y705 induction, EC50 (nM): 4.53 nM
  pSTAT3 Y705 induction, Fold Over Background: 34.6 fold
Human PILRA G78 on cells [7]
  EC50: 12 nM
[8]
  Kd: 1.58 nM
Human PILRA G78 on cells [9]
  EC50: 10.8 nM
Human PILRA G78 on cells [10]
  EC50: 12 nM
Human PILRA R78 on cells [11]
  EC50: 2.7 nM

## B2
[12]
  Kd: 0.2 to 0.4 nM
[13]
  Kd: 6.2 to 6.3 nM
[14]
  Kd: 38 to 56 nM
[15]
  Kd: 0.4 nM
Human PILRA G78 on cells [16]
  EC50: 7 to 8 nM
Human PILRA R78 on cells [17]
  EC50: 1 to 2 nM

## B3
[12]
  Kd: 0.3 to 0.7 nM
[13]
  Kd: 11 nM
[14]
  Kd: 35 to 53 nM
[15]
  Kd: 0.2 to 0.3 nM
Human PILRA G78 on cells [16]
  EC50: 13 to 14 nM
Human PILRA R78 on cells [17]
  EC50: 2 to 4 nM

## B4
[18]
  binding result: no binding
[19]
  binding result: no binding
Human PILRB on cells
  binding result: no binding (tested: 100 nM)
[20]
  binding result: no binding (tested: 100 nM)

## B5
[18]
  binding result: no binding
[19]
  binding result: no binding
Human PILRB on cells
  binding result: no binding (tested: 100 nM)
[20]
  binding result: no binding (tested: 100 nM)

## B6
[18]
  binding result: no binding
[19]
  binding result: no binding
Human PILRB on cells
  binding result: no binding (tested: 100 nM)
[20]
  binding result: no binding (tested: 100 nM)

## B7
Human PILRA G78 on cells [5]
  pSTAT3 S727 induction, EC50 (nM): 16 nM
  pSTAT3 Y705 induction, EC50 (nM): 12.1 nM
Human PILRA R78 on cells [6]
  pSTAT3 S727 induction, EC50 (nM): 7.13 nM
  pSTAT3 Y705 induction, EC50 (nM): 3.18 nM
Human PILRA G78 on cells [21]
  EC50: 9.3 nM
Human PILRA G78 on cells [9]
  EC50: 7.6 nM
Human PILRA G78 on cells [22]
  EC50: 4.8 nM
Human PILRA G78 on cells [23]
  EC50: 13 nM
Human PILRA R78 on cells [24]
  EC50: 0.3 nM
[25]
  Kd: 0.72 nM
[26]
  Kd: 9.6 nM
[27]
  Kd: 90 nM
Human PILRA R78 on cells [11]
  EC50: 2 nM
Human PILRA R78 on cells [28]
  EC50: 0.7 nM

## B8
Human PILRA G78 on cells [5]
  pSTAT3 S727 induction, EC50 (nM): 18.6 nM
  pSTAT3 S727 induction, Fold Over Background: 26.6 fold
  pSTAT3 Y705 induction, EC50 (nM): 13 nM
  pSTAT3 Y705 induction, Fold Over Background: 32.5 fold
Human PILRA R78 on cells [6]
  pSTAT3 S727 induction, EC50 (nM): 10.7 nM
  pSTAT3 S727 induction, Fold Over Background: 28.9 fold
  pSTAT3 Y705 induction, EC50 (nM): 5.38 nM
  pSTAT3 Y705 induction, Fold Over Background: 38.3 fold
Human PILRA G78 on cells [21]
  EC50: 13 nM
Human PILRA G78 on cells [9]
  EC50: 10 nM
Human PILRA G78 on cells [22]
  EC50: 3.2 nM
Human PILRA G78 on cells [23]
  EC50: 9.5 nM
Human PILRA R78 on cells [24]
  EC50: 0.3 nM
[25]
  Kd: 1.2 nM
[26]
  Kd: 17 nM
[27]
  Kd: 250 nM
[29]
  Kd: 4.8 nM
Human PILRA G78 on cells [10]
  EC50: 12.9 nM
Human PILRA R78 on cells [11]
  EC50: 2.5 nM
Human PILRA R78 on cells [28]
  EC50: 0.7 nM

## B9
hNPDC1(35-181)
  binding result: binds
hPANP(76-178)
  binding result: binds
